Assay results published in patent US20210293791A1, “BACTERIAL VAGINOSIS DIAGNOSTIC” (MOLOGIC LTD, priority 2018, published 2021).
Non-standard residues stand in square brackets, D forms with d. Primed or numbered codes have the meaning given here. Gal = galactose on Ser (no sialyl group); Biotin′ = not defined here; Ac6c = NC1(C(=O)O)CCCCC1; PEG = not defined here

Columns and labels:
antisera CF1064 = settings: ELISA and lateral flow, FIG. 19
From the text: To refine the peptide design and remove peripheral interactions of antibodies not binding the galactose moiety in the peptide, the original sequence MOL136 was truncated to a shorter sequence MOL600: […]

MOL136 and MOL136c = experiment: Lateral flow assay with gold-labelled antisera on streptavidin capture zone; type: binding; settings: gold-labelled CF1064; peptide 1.3 ng/ml (38 μg per strip)
Procedure: CF1064 was conjugated to gold particles in optimised conditions (15 μg/ml loading in 10 mM sodium borate buffer; pH 8.0) and assayed against MOL136 and MOL136c at a final concentration of 1.3 ng/ml (38 μg per strip). Thus, a capture zone was first formed on each lateral flow test strip using 1.5 mg/ml streptavidin. Then, 3 μl of each peptide (12.5 ng/ml peptide in PBST) was mixed with 10 μl of gold-labelled CF1064 and 15 μl of running buffer (0.5 M Tris at pH 7.5+3% BSA+0.5% Triton X-100) before each sample was run along a separate lateral flow test strip. A negative control in which no peptide was added was also run as a negative control. 15 μl of running buffer wash was then run along each lateral flow test strip.

sialidase = settings: 25 U/ml sialidase in PBST for 5 minutes
Procedure: Thus, a capture zone was first formed on each lateral flow test strip using 1.5 mg/ml streptavidin. Then, 3 μl of each peptide (12.5 ng/ml peptide in PBST) was mixed with 10 μl of gold-labelled CF1064 and 15 μl of running buffer (0.5 M Tris at pH 7.5+3% BSA+0.5% Triton X-100) before each sample was run along a separate lateral flow test strip. A negative control in which no peptide was added was also run as a negative control. 15 μl of running buffer wash was then run along each lateral flow test strip.
The procedure described in Example 4B was repeated in the presence of 25 U/ml sialidase. A sample in which sialidase was absent was used as a negative control. A further negative control was run in which no peptide and no sialidase was included in the sample. As a positive control, MOL136 was used in place of MOL136c in the presence of 25 U/ml sialidase.

[1] = tested on: T1, MOL136c: biotin-PEG-Asp-Glu-DSer-Nva-Cyc-DAla-Ser[Gal-Sial]-DAla-Arg-Phe-DSer-Val-OH
T1 sequence: DESXXASARFSV

[2] = tested on: T2, MOL600c: NH2-Cyc-DAla-Ser[Gal-Sial]-DAla-Arg-PEG-Biotin
T2 sequence: XASAR

[3] = target: T3, MOL600: NH2-Cyc-DAla-Ser[Gal]-DAla-Arg-PEG-Biotin (reading uncertain; also: printed as NH2-Cyc-DAla-Ser[Gal]-DAla-Arg-PEG-Biotin); experiment: bio-layer interferometry, peptide immobilised on streptavidin biosensor, antibody at 1, 2, 4, 8 or 16 nM
T3 construct: MOL600 is its de-sialylated form; Immobilised on a streptavidin biosensor through biotin
T3 peptide: H-[Ac6c][dA]S(Gal)[dA]R-{PEG-Biotin′}
Procedure: (§1) MOL615 was biotinylated to yield MOL600 (sequence provided in Example 7) and antibody binding affinity and kinetics was measured using bio-inferometry. […] Binding of the antibody was detected by a shift in the reflected light interference.

MOL600 = experiment: Antibody binding affinity and kinetics by bio-inferometry, peptide immobilised on biosensor by streptavidin/biotin
Procedure: as §1

[4] = antibody at 1, 2, 4, 8 or 16 nM, MOL600 immobilised

With “NH2—Cyc-DAla-Ser[Gal-Sial]-DAla-Arg-PEG-Biotin [MOL600c]” the “performance compared with MOL136/MOL136c” value (antisera CF1064) was “significant improvement in performance”.

“NH2—Cyc-DAla-Ser[Gal]-DAla-Arg-PEG-Biotin [MOL600]” was tested, and the “performance compared with MOL136/MOL136c” value (antisera CF1064) was “significant improvement in performance”.

In the case of “biotin-PEG-Asp-Glu-DSer-Nva-Cyc-DAla-Ser[Gal-Sial]-DAla-Arg-Phe-DSer-Val-OH [MOL136c]”, the “signal in the capture zone (visible line on the test strip)” value (MOL136 and MOL136c) is reported as “little/no signal” and the “lateral flow signal after sialidase incubation” value (sialidase) is reported as “clear positive signal”.

With “biotin-PEG-Asp-Glu-DSer-Nva-Cyc-DAla-Ser[Gal]-DAla-Arg-Phe-DSer-Val-OH [MOL136]” the “signal in the capture zone (visible line on the test strip)” value (MOL136 and MOL136c) was “clearly detected”.

With sialidase the “lateral flow test line signal with gold-labelled CF1064” value [1] was “A clear positive signal was observed in respect of MOL136c incubated in the presence of 25 U/ml sialidase in PBST for 5 minutes” and the “lateral flow test line signal” value [2] was “signal has been recovered by spiking in sialidase”.

B1: monoclonal antibody 125.1 (antibody, V domains shown)
VH: QSVEESGGRLVTPGTPLTLTCTVSGFSLSSYSMDWVRQAPGKGLEWVGGITTTLHTFYATWAKGRFTISKTSSTTVDLKMTSLTTDDAATYFCARGGSSVIWGPGTLVTVSS
VL: ALVMTQTPSPVSAAVGGTVTISCQSSQSVYGNNHLNWHQQKRGQPPKQLIGSASRLASGVPSRFKGSGSGTQFTLTISGVQCDDAATYYCQGSYYNGAWYVAFGGGTELEIKR
modifications: Pyro-Glu(Q) at N-terminal of heavy chain; N-linked glycosylation at constant region N@285; additional O-linked glycosylation site between positions 213 and 216 (partly occupied); C-terminal lysine eliminated
notes: Rabbit monoclonal from immunisation with KLH-MOL616; Gamma heavy chain and Kappa light chain
With B1 the Kd [3] was 7.9 nM, the koff [3] was 0.000427 s⁻¹ and the kon [3] was 54100 M⁻¹ s⁻¹.

B2: antibody 125.1: rabbit monoclonal antibody, heavy chain SEQ ID NO: 7, light chain SEQ ID NO: 8, specific for Cyc-DAla-Ser[Gal]-DAla-Arg (antibody, listed as Oryctolagus cuniculus)
heavy: QSVEESGGRLVTPGTPLTLTCTVSGFSLSSYSMDWVRQAPGKGLEWVGGITTTLHTFYATWAKGRFTISKTSSTTVDLKMTSLTTDDAATYFCARGGSSVIWGPGTLVTVSSGQPKAPSVFPLAPCCGDTPSSTVTLGCLVKGYLPEPVTVTWNSGTLTNGVRTFPSVRQSSGLYSLSSVVSVTSSSQPVTCNVAHPATNTKVDKTVAPSTCSKPTCPPPELLGGPSVFIFPPKPKDTLMISRTPEVTCVVVDVSEDDPEVQFTWYINNEQVRTARPPLREQQFNSTIRVVSTLPIAHEDWLRGKEFKCKVHNKALPAPIEKTISKARGQPLEPKVYTMGPPREELSSRSVSLTCMINGFYPSDISVEWEKNGKAEDNYKTTPAVLDSDGSYFLYSKLSVPTSEWQRGDVFTCSVMHEALHNHYTQKSISRSPG
light: ALVMTQTPSPVSAAVGGTVTISCQSSQSVYGNNHLNWHQQKRGQPPKQLIGSASRLASGVPSRFKGSGSGTQFTLTISGVQCDDAATYYCQGSYYNGAWYVAFGGGTELEIKRDPVAPSVLLFPPSKEELTTGTATIVCVANKFYPSDITVTWKVDGTTQQSGIENSKTPQSPEDNTYSLSSTLSLTSAQYNSHSVYTCEVVQGSASPIVQSFNRGDC
B2 was tested, and the “binding specificity for MOL600 compared to the sialylated form MOL600c” value (MOL600; FIG. 27) was “clearly specific for MOL600”, the Koff (MOL600; [4]) was 0.000427 s⁻¹ and the Kon (MOL600; [4]) was 54080 M⁻¹ s⁻¹.
